# Measured values reported in patent US8642734.
# B1: NT, N-terminal fragment of major ampullate spidroin (MaSp) 1 from Euprosthenops australis (protein)
# chain: GSGNSHTTPWTNPGLAENFMNSFMQGLSSMPGFTASQLDDMSTIAQSMVQSIQSLAAQGRTSPNKLQALNMAFASSMAEIAASEEGGGSLSTKTSSIASAMSNAFLQTTGVVNQPFINEITQLVSMFAQAGMNDVSA
# Experiment: dynamic light scattering; self-association of NT below pH 6.4
protein,measurement,value
B1,hydrodynamic size of polymers,polymers with a hydrodynamic size of ˜700 nm below pH 6.4
